Source: PMC4130638, “Structure of a Stapled Peptide Antagonist Bound to Nutlin-Resistant Mdm2” (PLoS ONE, 2014)
Positions of bridges follow the written chain, without caps; N, C: chain ends. Non-standard residues stand in square brackets, D forms with d. S8 = C=CCCCCCC[C@](C)(N)C(=O)O; S5 = C=CCCC[C@](C)(N)C(=O)O; FAM = carboxyfluorescein

Assays:
[1] = target: T1, Mdm2-M62A (amino acids 6-125) (UniProt Q00987 6-125, M62A); assay: fluorescence polarisation; competitive fluorescence anisotropy: M06 titrated against a constant 150 nM Mdm2 (6-125) wild type or M62A and 50 nM FAM-12-1 peptide; PBS pH 7.4, 3% DMSO, 0.1% Tween-20; apparent Kd; 3-5 titrations; settings: both partners purified
T1 construct: Made from the wild-type pGEX-6P-1 construct by QuickChange mutagenesis; also called Nutlin-resistant Mdm2; mutant Mdm2 (6-125); source: E. coli BL21(DE3) pLysS, purified (GSTrap, on-column PreScission cleavage, Resource S cation exchange)

[2] = target: T2, Mdm2 (amino acids 6-125), wild type (UniProt Q00987 6-125); assay: as above; settings: both partners purified
T2 construct: Cloned in pGEX-6P-1; also called Mdm2 (6-125); wild-type Mdm2; source: E. coli BL21(DE3) pLysS, purified (GSTrap, on-column PreScission cleavage, Resource S cation exchange)

[3] = target: T2, Mdm2 (amino acids 6-125), wild type; assay: not stated; Kds told in the discussion of the structures without method, construct or citation

Kd [1] [nM] | Kd [2] [nM] | Kd [3] [nM] | binding result [1] | binding result [2] | Binder
63.1 ± 17.8 | 107 ± 47.9 | 128 | – | – | Ac-TSF[S5]EYWYLL[S8]-NH2 (staple 4-11; SMILES CC(=O)N[C@H](C(=O)N[C@@H](CO)C(=O)N[C@@H](Cc1ccccc1)C(=O)N[C@@]1(C)CCCC=CCCCCCC[C@@](C)(C(N)=O)NC(=O)[C@H](CC(C)C)NC(=O)[C@H](CC(C)C)NC(=O)[C@H](Cc2ccc(O)cc2)NC(=O)[C@H](Cc2c[nH]c3ccccc23)NC(=O)[C@H](Cc2ccc(O)cc2)NC(=O)[C@H](CCC(=O)O)NC1=O)[C@@H](C)O) [M06 stapled peptide]
– | – | – | binds | binds | {FAM}-RFMDYWEGL-NH2 (12-1 peptide, tracer of the fluorescence anisotropy assay) [carboxyfluorescein (FAM) labelled 12-1 peptide]
